Experimental data published in publication PMC11026464, “Local environment in biomolecular condensates modulates enzymatic activity across length scales” (Nature Communications, 2024).

What was measured:
[1] = tested on: T1, Dbp1-NOX; experiment: NADH absorbance decrease at […] nm, Michaelis-Menten fit; assay type: biochemical, Thermus thermophilus; settings: 1 µM enzyme, two-phase micron-sized condensates (apparent, average of dilute and dense phase); 100 µM FAD, O2; 25 mM Tris, 20 mM NaCl, pH 7.5; NADH 50-200 µM
T1 construct: single fusion chain: Dbp1 LCD (1-155) at N-terminus of NOX; E. coli, heat shock and IMAC; dimer 79 kDa; forms condensates/nanoclusters at low salt; with ATP-dependent RNA helicase DBP1 (Saccharomyces cerevisiae)

[2] = target: Dbp1-NOX (LCD of Dbp1 from Saccharomyces cerevisiae, residues 1 to 155, fused to the N-terminus of NADH oxidase from Thermus thermophilus) (Saccharomyces cerevisiae | Thermus thermophilus) (UniProt P24784); experiment: single-molecule mass photometry; 20 nM protein in low ionic strength buffer (20 mM NaCl), 25 °C, measured over 1 min; Refeyn OneMP
[3] = substrate: NC(=O)C1=CN([C@@H]2O[C@H](COP(=O)(O)OP(=O)(O)OC[C@H]3O[C@@H](n4cnc5c(N)ncnc54)[C@H](O)[C@@H]3O)[C@@H](O)[C@H]2O)C=CC1; experiment: purified protein; assay type: biochemical, Thermus thermophilus; settings: 1 µM enzyme, homogeneous, 100 µM FAD, O2, 25 mM Tris, 20 mM NaCl, pH 7.5, NADH 50-200 µM
[4] = target: the molecule itself; experiment: single-molecule mass photometry; 20 nM protein in low ionic strength buffer (20 mM NaCl), 25 °C, measured over 1 min; Refeyn OneMP

`NC(=O)C1=CN([C@@H]2O[C@H](COP(=O)(O)OP(=O)(O)OC[C@H]3O[C@@H](n4cnc5c(N)ncnc54)[C@H](O)[C@@H]3O)[C@@H](O)[C@H]2O)C=CC1` [NADH] gave a Km [1] of 89 ± 34 µM.

“Dbp1-NOX (LCD of Dbp1 from Saccharomyces cerevisiae, residues 1 to 155, fused to the N-terminus of NADH oxidase from Thermus thermophilus) (from UniProt P24784 1-155) (enzyme)” showed a stoichiometry N [2] of 2.

B1: NADH oxidase from Thermus thermophilus (NOX) (enzyme)
chain: MEATLPVLDAKTAALKRRSIRRYRKDPVPEGLLREILEAALRAPSAWNLQPWRIVVVRDPATKRALREAAFGQAHVEEAPVVLVLYADLEDALAHLDEVIHPGVQGERREAQKQAIQRAFAAMGQEARKAWASGQSYILLGYLLLLLEAYGLGSVPMLGFDPERVRAILGLPSHAAIPALVALGYPAEEGYPSHRLPLERVVLWR
notes: NADH oxidase (NOX) from Thermus thermophilus; codon-optimised gene cloned into pET-15b; Purified by heat shock only, so it is not clear whether a His tag is on this protein; The dimer peak in mass photometry is printed as 45 kDa; also called unconjugated NOX; source: E. coli BL21-GOLD (DE3), purified (heat shock method)
For B1, the Km [3] was 81 ± 36 µM, the kcat [3] was 1.12 ± 0.21 s⁻¹ and the “stoichiometry N” value [4] was 2.
